# How the values were obtained:
# [1] = target: protein kinase A (PKA) regulatory subunit RI (human (endogenous in HPAEC)) (UniProt P10644); assay: non-reducing SDS-PAGE with Western blot
# [2] = target: phosphorylated cAMP response element-binding protein (CREB) (human (endogenous in HPAEC)); assay: co-IP
# Chain of phosphorylated cAMP response element-binding protein (CREB) (human (endogenous in HPAEC)) (P16220 whole entry): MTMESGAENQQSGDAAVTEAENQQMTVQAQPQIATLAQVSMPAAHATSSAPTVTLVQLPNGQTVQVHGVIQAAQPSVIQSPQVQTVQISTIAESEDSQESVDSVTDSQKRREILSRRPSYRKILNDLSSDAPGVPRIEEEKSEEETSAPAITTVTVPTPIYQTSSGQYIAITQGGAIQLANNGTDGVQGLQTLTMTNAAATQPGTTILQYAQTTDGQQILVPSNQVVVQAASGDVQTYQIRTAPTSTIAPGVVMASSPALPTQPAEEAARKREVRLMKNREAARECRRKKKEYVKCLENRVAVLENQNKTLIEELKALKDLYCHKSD
substance,measurement,setting,value
protein kinase A (PKA) regulatory subunit RI (from UniProt P10644 1-381) (natural protein),"fold change of the dimer band, 100 µM H2O2 against 0 µM H2O2",[1],3.3 fold
redox factor 1 (Ref-1) (from UniProt P27695 1-318) (natural protein),"fold change of co-precipitated Ref-1, hypoxia against normoxia",[2],1.81 fold
